Measurements as given in patent publication US20180291096A1 (Janssen / Centocor, published 2018).
Positions count from the first letter of the chain named.

T1: recombinant human IL-23 (hrIL-23), produced at Centocor (human, UniProt P29460 23-328)
T1 sequence 1: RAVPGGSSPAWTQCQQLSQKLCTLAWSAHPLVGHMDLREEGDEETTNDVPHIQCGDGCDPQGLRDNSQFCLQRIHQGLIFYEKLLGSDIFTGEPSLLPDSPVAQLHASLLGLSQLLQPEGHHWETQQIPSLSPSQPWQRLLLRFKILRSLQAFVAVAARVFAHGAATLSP
T1 sequence 2: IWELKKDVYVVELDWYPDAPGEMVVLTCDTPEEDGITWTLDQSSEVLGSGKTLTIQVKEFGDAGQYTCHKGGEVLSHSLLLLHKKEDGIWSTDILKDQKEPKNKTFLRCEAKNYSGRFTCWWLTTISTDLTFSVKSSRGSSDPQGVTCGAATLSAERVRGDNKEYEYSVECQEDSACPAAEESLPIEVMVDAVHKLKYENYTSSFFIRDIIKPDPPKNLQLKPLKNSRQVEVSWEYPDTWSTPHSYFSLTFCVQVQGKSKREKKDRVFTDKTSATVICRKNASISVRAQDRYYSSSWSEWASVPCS

B1: MOR05061 mAb (antibody, human IgG1, V domains shown)
VH: QVELVESGGGLVQPGGSLRLSCAASGFTFSSFGMSWVRQAPGKGLEWVSNISSSGSSTYYADSVKGRFTISRDNSKNTLYLQMNSLRAEDTAVYYCARYWGTPYLMQFDNWGQGTLVTVSS
VL: DIALTQPASVSGSPGQSITISCTGTSSDVGGYNSVSWYQQHPGKAPKLMIYSVSSRPSGVSNRFSGSKSGNTASLTISGLQAEDEADYYCSSYYFYLQRIVFGGGTKLTVL
B2: MOR04658 mAb (antibody, human IgG1, V domains shown)
VH: B1 VH
VL: B1 VL with Y94D, F95T, Y96N, L97K, Q98P, R99L, I100V
B3: MOR05033 mAb (antibody, human IgG1, V domains shown)
VH: QVELVQSGAEVKKPGSSVKVSCKASGGTFSSNYISWVRQAPGQGLEWMGIIIPPIGNAWYAQKFQGRVTITADESTSTAYMELSSLRSEDTAVYYCARSKKGMYGGWTYPLMMFDLWGQGTLVTVSS
VL: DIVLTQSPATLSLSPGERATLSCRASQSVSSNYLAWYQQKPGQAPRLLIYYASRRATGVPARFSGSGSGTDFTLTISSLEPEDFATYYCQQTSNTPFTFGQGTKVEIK
B4: MOR05037 mAb (antibody, human IgG1, V domains shown)
VH: B3 VH with I50L, I52D, P54M, I55F, N57G, W59Y
VL: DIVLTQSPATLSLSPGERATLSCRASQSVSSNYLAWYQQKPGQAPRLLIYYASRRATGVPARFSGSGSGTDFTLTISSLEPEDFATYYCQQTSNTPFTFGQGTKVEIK
B5: MOR05267 Fab (Fab, V domains shown)
VH: QVQLVQSGAEVKKPGSSVKVSCKASGGTFSNYAISWVRQAPGQGLEWMGGIIPMFGYANYAQKFQGRVTITADESTSTAYMELSSLRSEDTAVYYCARDIYAGMDVWGQGTLVTVSS
VL: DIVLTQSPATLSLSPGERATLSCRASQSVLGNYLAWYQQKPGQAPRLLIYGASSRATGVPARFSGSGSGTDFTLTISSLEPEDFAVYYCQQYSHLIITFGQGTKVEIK
notes: Fab
B6: MOR05269 Fab (Fab, V domains shown)
VH: B5 VH
VL: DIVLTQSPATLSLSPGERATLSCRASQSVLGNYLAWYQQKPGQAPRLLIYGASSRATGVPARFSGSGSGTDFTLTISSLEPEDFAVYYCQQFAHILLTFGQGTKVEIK
notes: Fab
B7: MOR05268 Fab (Fab, V domains shown)
VH: B5 VH
VL: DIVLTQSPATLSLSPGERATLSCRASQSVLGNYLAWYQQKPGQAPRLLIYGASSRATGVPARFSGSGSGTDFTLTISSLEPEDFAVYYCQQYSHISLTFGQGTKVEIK
notes: Fab
B8: MOR05034 Fab (Fab, V domains shown)
VH: B3 VH with E3Q, I50L, I52D, P54N, I55F, N57G, W59Y
VL: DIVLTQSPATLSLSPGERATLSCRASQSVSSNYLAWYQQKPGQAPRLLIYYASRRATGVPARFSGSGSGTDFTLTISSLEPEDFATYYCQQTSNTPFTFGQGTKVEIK
notes: Fab
B9: MOR05036 Fab (Fab, V domains shown)
VH: B3 VH with E3Q, I50L, I52D, P54V, I55F, N57G, W59Y
VL: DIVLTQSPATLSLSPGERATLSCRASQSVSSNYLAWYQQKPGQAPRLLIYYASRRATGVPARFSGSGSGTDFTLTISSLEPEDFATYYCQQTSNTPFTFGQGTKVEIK
notes: Fab
B10: MOR05041 Fab (Fab, V domains shown)
VH: QVQLVQSGAEVKKPGESLKISCKGSGYSFSNYWIGWVRQMPGKGLEWMGIISPTGSVTWYSPSFQGQVTISADKSISTAYLQWSSLKASDTAMYYCARWYYKPFDVWGQGTLVTVSS
VL: DIVLTQPPSVSGAPGQRVTISCTGSSSNIGSGYDVHWYQQLPGTAPKLLIYGNSKRPSGVPDRFSGSKSGTSASLAITGLQSEDEADYYCSSWTPSSVVFGGGTKLTVL
notes: Fab
B11: MOR05059 Fab (Fab, V domains shown)
VH: B10 VH with S52D, T54S, G55N, V57Y, W59N
VL: DIVLTQPPSVSGAPGQRVTISCTGSSSNIGSGYDVHWYQQLPGTAPKLLIYGNSKRPSGVPDRFSGSKSGTSASLAITGLQSEDEADYYCASWTDGLSLVVFGGGTKLTVL
notes: Fab
B12: MOR05058 Fab (Fab, V domains shown)
VH: B10 VH with S52D, T54S, G55N, V57Y, W59N
VL: B11 VL with A91S, G96T, L97P, S98N, L99M, V100I
notes: Fab
B13: MOR05044 Fab (Fab, V domains shown)
VH: B10 VH with T54S, V57T
VL: B10 VL
notes: Fab
B14: MOR05043 Fab (Fab, V domains shown)
VH: B10 VH with I50F, T54D, V57H
VL: B10 VL
notes: Fab
B15: MOR05046 Fab (Fab, V domains shown)
VH: B10 VH with S52D, T54V, G55S, V57W, W59K
VL: B10 VL
notes: Fab
B16: MOR04205 Fab (Fab, V domains shown)
VH: QVQLVQSGAEVKKPGESLKISCKGSGYSFTNYWISWVRQAPGKGLEWMGWIRPGDSDTRYSPSFEGQVTISADKSISTAYLQWSSLKASDTAMYYCARHYYGMDYWGQGTLVTVSS
VL: DIVLTQPPSVSGAPGQRVTISCSGSSSNIGSYYVNWYQQLPGTAPKLLIYGNTHRPSGVPDRFSGSKSGTSASLAITGLQSEDEADYYCQTYASLGPGEVFGGGTKLTVL
notes: Fab
B17: MOR05053 Fab (Fab, V domains shown)
VH: QVQLVESGGGLVQPGGSLRLSCAASGFTFSSFGMSWVRQAPGKGLEWVSNIEHKYTSYTTYYAASVKGRFTISRDNSKNTLYLQMNSLRAEDTAVYYCARYWGTPYLMQFDNWGQGTLVTVSS
VL: B1 VL with Y94D, F95T, Y96N, L97K, Q98P, R99L, I100V
notes: Fab
B18: MOR05062 Fab (Fab, V domains shown)
VH: B1 VH with E3Q
VL: B1 VL with S91Q, S92T, Y96S, L97Y, Q98S, R99G, I100P
notes: Fab
B19: MOR05063 Fab (Fab, V domains shown)
VH: B1 VH with E3Q
VL: B1 VL with S91G, Y93W, Y94D, F95P, Y96I, L97F, Q98S, R99Y, I100E
notes: Fab
B20: MOR05052 Fab (Fab, V domains shown)
VH: B17 VH with N50S, T56L, Y61F
VL: B1 VL with Y94D, F95T, Y96N, L97K, Q98P, R99L, I100V
notes: Fab
B21: MOR05061 Fab (Fab, V domains shown)
VH: B1 VH with E3Q
VL: B1 VL
notes: Fab
B22: MOR05055 Fab (Fab, V domains shown)
VH: B17 VH with T56L, S57G, T59A, Y61V
VL: B1 VL with Y94D, F95T, Y96N, L97K, Q98P, R99L, I100V
notes: Fab
B23: MOR05050 Fab (Fab, V domains shown)
VH: B17 VH with N50S, S57G, S65P
VL: B1 VL with Y94D, F95T, Y96N, L97K, Q98P, R99L, I100V
notes: Fab
B24: MOR05047 Fab (Fab, V domains shown)
VH: B17 VH with T56L, S57G, T59A, Y61S
VL: B1 VL with Y94D, F95T, Y96N, L97K, Q98P, R99L, I100V
notes: Fab
B25: MOR05060 Fab (Fab, V domains shown)
VH: B1 VH with E3Q
VL: B1 VL with S91G, Y94D, F95V, L97G, Q98R, R99F, I100Y
notes: Fab
B26: MOR05039 Fab (Fab, V domains shown)
VH: B17 VH with T56L, S57N, T59A
VL: B1 VL with Y94D, F95T, Y96N, L97K, Q98P, R99L, I100V
notes: Fab
B27: MOR05048 Fab (Fab, V domains shown)
VH: B17 VH with Y55F, T56M, S57G, S65G
VL: B1 VL with Y94D, F95T, Y96N, L97K, Q98P, R99L, I100V
notes: Fab
B28: MOR05056 Fab (Fab, V domains shown)
VH: B17 VH with N50S, T56L, T59A, S65G
VL: B1 VL with Y94D, F95T, Y96N, L97K, Q98P, R99L, I100V
notes: Fab

biological target: T1, recombinant human IL-23 (hrIL-23), …; assay: cell-based or functional assay

IC50, inhibition of IL-17 production [µg/mL] | Binder
0.309 | B1
1.96 | B2
0.283 | B3
0.336 | B4

biological target: T1, recombinant human IL-23 (hrIL-23), …; assay: SET

Kd [nM] | Binder
2 | B5
0.96 | B6
0.66 | B7
0.126 | B8
0.032 | B9
0.041 | B10
0.093 | B11
0.033 | B12
0.043 | B13
0.018 | B14
0.023 | B15

biological target: T1, recombinant human IL-23 (hrIL-23), …; assay: hrIL-23/hIL-23R competition assay

IC50 [nM] | Binder
38 | B16

biological target: T1, recombinant human IL-23 (hrIL-23), …; assay: Biacore, Fab capture

Kd [nM] | Binder
140 | B16

biological target: T1, recombinant human IL-23 (hrIL-23), …; assay: IL-23/IL-23R competition assay

IC50 [nM] | Binder
0.14 | B5
0.2 | B6
0.15 | B7
0.4 | B8
0.32 | B9
0.07 | B10
0.69 | B11
0.11 | B12
0.05 | B13
0.05 | B14
0.08 | B15

biological target: T1, recombinant human IL-23 (hrIL-23), …; assay: IL-23/IL-23R competition assay; remark: another data set of the same source

IC50 [nM] | Binder
0.98 | B17
1.34 | B18
0.32 | B19
0.58 | B20
1.25 | B21
0.79 | B22
0.89 | B23
0.13 | B24
1 | B25
0.1 | B26
0.1 | B27
0.52 | B28

biological target: T1, recombinant human IL-23 (hrIL-23), …; assay: SET; remark: another data set of the same source

Kd [nM] | Binder
0.027 | B17
0.098 | B18
0.069 | B19
0.01 | B20
0.058 | B21
0.029 | B22
0.023 | B23
0.036 | B24
0.142 | B25
0.027 | B26
0.02 | B27
0.065 | B28
